In data set [1] the target is T1, ctPrp43 (Thermochaetoides thermophila, UniProt G0RY84).
T1 construct: gene CTHT_0005780; truncated, residues 61-764; GST fusion, tag cleaved by TEV; E. coli Rosetta 2 (DE3); no G-patch protein
The experiment in a line: NADH-coupled ATPase assay (pyruvate kinase / lactate dehydrogenase), […] nm. The format is biochemical. To be noted: no RNA; no G-patch protein; 25 mM Bis-Tris propane pH 7.5, 150 mM KCl, 3 mM MgCl2, 25 °C; 5 uM enzyme; ATP 0-2 mM.

Substrate in data set [2]: Nc1ncnc2c1ncn2[C@@H]1O[C@H](COP(=O)(O)OP(=O)(O)OP(=O)(O)O)[C@@H](O)[C@H]1O
The data set can be described thus: purified protein. The format is biochemical, Thermochaetoides thermophila. To be noted: no RNA, 25 mM Bis-Tris propane pH 7.5, 150 mM KCl, 3 mM MgCl2, 25 °C, 0.4 uM enzyme, ATP 0-2 mM.

Positions count from the first letter of the chain named. Names may count otherwise.

T1 sequence (G0RY84 entry or part of it): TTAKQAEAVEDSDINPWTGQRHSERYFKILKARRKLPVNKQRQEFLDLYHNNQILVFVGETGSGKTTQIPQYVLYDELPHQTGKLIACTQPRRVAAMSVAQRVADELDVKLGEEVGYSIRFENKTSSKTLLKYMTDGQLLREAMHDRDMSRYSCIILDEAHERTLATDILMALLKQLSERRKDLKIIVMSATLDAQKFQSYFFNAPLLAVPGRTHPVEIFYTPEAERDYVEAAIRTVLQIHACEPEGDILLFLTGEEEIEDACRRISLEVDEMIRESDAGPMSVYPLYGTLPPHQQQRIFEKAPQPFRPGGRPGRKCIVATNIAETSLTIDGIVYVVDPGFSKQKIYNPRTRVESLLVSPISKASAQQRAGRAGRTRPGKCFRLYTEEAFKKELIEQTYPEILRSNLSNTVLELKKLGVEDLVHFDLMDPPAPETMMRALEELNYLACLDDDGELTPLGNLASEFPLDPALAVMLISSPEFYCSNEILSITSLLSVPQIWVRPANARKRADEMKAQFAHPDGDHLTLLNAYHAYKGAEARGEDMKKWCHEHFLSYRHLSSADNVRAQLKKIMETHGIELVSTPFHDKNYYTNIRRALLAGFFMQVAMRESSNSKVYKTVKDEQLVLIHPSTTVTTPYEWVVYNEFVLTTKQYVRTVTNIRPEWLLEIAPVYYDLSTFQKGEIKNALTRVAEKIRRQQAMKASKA

What is called Km is the concentration of substrate that gives half-maximal velocity. On to `Nc1ncnc2c1ncn2[C@@H]1O[C@H](COP(=O)(O)OP(=O)(O)OP(=O)(O)O)[C@@H](O)[C@H]1O` [ATP], for which the Km in data set [1] was found to be 21.1 ± 3.88 µM.

B1: ctPrp22 (Thermochaetoides thermophila DSM 1495) (protein)
chain: TNMSIKEQRESLPVFQFRDQIIQAVKDNQILIVVGETGSGKTTQVTQYLAEAGFTKYGMIGCTQPRRVAAVSVAKRVAEEVGCQLGQEVGYTIRFEDVTSPATKIKYMTDGMLQREILMDPDLKRYSVIMLDEAHERTIATDVLFALLKKTVKRRPDLKVIVTSATLDAEKFSEYFNSCPIFTIPGRTFPVEILYSREPEPDYLEAALTTVMQIHLTEPPGDILVFLTGQEEIDTACEILYERMKALGPSVPELIILPIYSALPSEMQSRIFEPAPPGSRKVVIATNIAETSITIDYIYYVVDPGFVKQNAYDPKLGMDSLVVTPISQAQANQRAGRAGRTGPGKCFRLYTEAAYQSEMLPTTIPDIQRQNLANTILLLKAMGINDLLRFDFMDPPPVNTMLTALEELYALGALDDEGLLTRLGRKMADFPMEPSLSKVLIASVDKGCSDEMVTIVSMLNLQQIFYRPKDKQQQADQKKAKFHDPTGDHLTLLNVYNAWKNSGYSNAWCFENYIQARAMRRARDVRQQIVKIMERHRHPIISCGRDTDKIRQALCAGFFRNTARKDPQEGYKTLTEGTPVYLHPSSALFGKQAEWVLYHELVLTTKEYMHFTTAIEPKWLVEAAPTFFKLAPTDRLSKRKKAERIQPLYNKYEGEDGWRLSAQRRAARPGGGGGTWG
notes: N-terminally truncated, lacks first 545 residues (S1 motif omitted); GST fusion from pGEX-6p1, tag cleaved by TEV; E. coli Rosetta 2 (DE3)
For orientation: kcat means the number of substrate molecules converted per active site and unit of time at saturation. Turning to B1, in data set [2], the Michaelis-Menten constant (Km) was 34.53 ± 1.74 µM and the kcat stood at 0.559 ± 0.00483 s⁻¹.

B2: ctPrp22 (Thermochaetoides thermophila DSM 1495; S837A) (protein)
chain: B1 chain with S292A
notes: as for B1
For B2, in data set [2], the Km came out at 33.15 ± 2.24 µM and the kcat amounted to 0.8948 ± 0.0107 s⁻¹.

B3: ctPrp22 (Thermochaetoides thermophila DSM 1495; S837G) (protein)
chain: B1 chain with S292G
notes: as for B1
B3: in data set [2], the Km stood at 24.79 ± 0.93 µM and the turnover number (kcat) turned out to be 0.9228 ± 0.00583 s⁻¹.

The values above are taken from PMC6486627, “Structural basis for RNA translocation by DEAH-box ATPases” (Nucleic Acids Research, 2019).
